Test system: MS2 coat protein
Assay: apparent KD of MS2 coat protein; designed switch direction (-1 OFF switch, 1 ON switch): -1; higher = weaker reporter binding
In short: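 Stalled E. coli RNA polymerase transcribed designed RNA switches on Illumina chips, which were then titrated with SNAP-549-labelled MS2 coat protein, doubling from 0.7 or 1.5 nM to 3 µM. Steps lasted from 0.8–1.5 h at the lowest concentration to 10–20 min at the highest. The apparent KD is each design's median over clusters of curve-fitted normalised fluorescence.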

[1] = Eterna round: R95, input ligand: FMN 200 uM
[2] = Eterna round: R95, input ligand: microRNA oligo, concentration not stated
[3] = Eterna round: R95, input ligand: none
[4] = input ligand: microRNA oligo, concentration not stated

Sequence | apparent KD of MS2 coat protein [1] [nM] | apparent KD of MS2 coat protein [2] [nM] | apparent KD of MS2 coat protein [3] [nM] | apparent KD of MS2 coat protein (input ligand: FMN 200 uM) [nM] | apparent KD of MS2 coat protein [4] [nM] | apparent KD of MS2 coat protein (input ligand: none) [nM]
AGUACUAUGCGAGCUGACUUGCGUAGUGCAGCAAGUGAAACAUGAGGAUCACCCAUGUCCUCAUUUGCUCGUCUUAU [Mat - Sensor v3 - Turn-off var 2 - D1] (puzzle: Sensor v3, turn-off variant 2) | 35.3 | 453 | 30.8 | – | – | –
AGUACUCACACGAAAGUGUUAGUACAAUAAGCUUGUGAAACAUGAGGAUCACCCAUGUCCUCAUAAGCUCGUCUUAU [salish99_TOv2_r3_018] (Eterna round: R96, puzzle: Sensor v3, turn-off variant 2) | – | – | – | 16.2 | 430 | 18.1
AGUACUCACACGAAAGUGUUAGUACAAUAAGCUUGUGAAACAUGAGGAUCACCCAUGUCCUCAUAAGCUCGUCUUAU [salish99_TOv2_r3_018] (puzzle: Sensor v3, turn-off variant 2) | 17.6 | 1380 | 17.1 | – | – | –
AGUACUGACACGAAAGUGUUAGUACAAUAAGCUUGUGAAACAUGAGGAUCACCCAUGUCCUCAUAAGCUCGUCUUAU [salish99_TOv2_r3_017] (Eterna round: R96, puzzle: Sensor v3, turn-off variant 2) | – | – | – | 15.9 | 469 | 17.9
AGUACUGACACGAAAGUGUUAGUACAAUAAGCUUGUGAAACAUGAGGAUCACCCAUGUCCUCAUAAGCUCGUCUUAU [salish99_TOv2_r3_017] (puzzle: Sensor v3, turn-off variant 2) | 16 | 1200 | 13.8 | – | – | –
AGUACUGGCGCGUCGGUGUUGGUACAAUAAGCUUGUGAAACAUGAGGAUCACCCAUGUCCUCAUAAGCUCGUCUUAU [salish99_TOv2_r2_083] (puzzle: Sensor v3, turn-off variant 2) | 16.9 | 600 | 16.5 | – | – | –
AGUACUUACUCGAUAGUGUUAGUACAAUAAGCUUGUGAAACAUGAGGAUCACCCAUGUCCUCAUUAGCUCGUCUUAU [salish99_TOv2_r3_1006] (puzzle: Sensor v3, turn-off variant 2) | 206 | 758 | 199 | – | – | –
AGUACUUUCACGAAAGUGAAAGUACAAAUGAGCUUUUGAACAUGAGGAUCACCCAUGUCCUCAUAAGCUCGUCUUAA [Mat - Sensor v2 - var 2 - Mod - D175] (Eterna round: R96, puzzle: Sensor v2, turn-off variant 2) | – | – | – | 28.3 | 458 | 30.7
AGUAGAUCUACGCUUGCGUGGAUCUGCUAUGCAGGUGUUACAUGAGGAUCACCCAUGUCCUCAUUUGCUCGUCUUAU [JL turnoff v2 99.14] (puzzle: Sensor v3, turn-off variant 2) | 133 | 356 | 138 | – | – | –
AGUAGUUACGCAGGAUAUGAGGAUCACCCAUAGAAGGAUAUCGAAAGAGAAGGUCUGAGGAUUACCCAGAAGGGCGUGACUACA [pwkr exNG2 2xF5 2xFMN.5] (Eterna round: R96, puzzle: Exclusion NG 2) | – | – | – | 647 | 113 | 136
AGUAGUUGUUUCCGUUCUUACAUGAGGAUCACCCAUGUUUCUUGACGUGCACGCGAUGCUCGUCAGACUACCAGAUG [salish99_TOv1_r3_057] (Eterna round: R96, puzzle: Sensor v3, turn-off variant 1) | – | – | – | 60.5 | 37.4 | 57
AGUAGUUGUUUCCGUUCUUACAUGAGGAUCACCCAUGUUUCUUGACGUGCACGCGAUGCUCGUCAGACUACCAGAUG [salish99_TOv1_r3_057] (puzzle: Sensor v3, turn-off variant 1) | 57.6 | 87.8 | 81.7 | – | – | –
AGUAGUUGUUUCCGUUCUUACAUGAGGAUCACCCAUGUUUCUUGUCGUGCUCGCGUUGCUCGUCAGACUACCUGUUG [salish99_TOv1_r3_062] (puzzle: Sensor v3, turn-off variant 1) | 69.8 | 88.6 | 105 | – | – | –
AGUAUCUAUCAUGAGAGUGGUAGGUACAACAGGUGGGAAACAUGAGGAUCACCCAUGUCCUCAUUUGCUCGUCUUAU [Grok-var2-01] (puzzle: Sensor v3, turn-off variant 2) | 550 | 144 | 764 | – | – | –
AGUAUGCGUGUCAGGAUAUCAAUGGCUCUACCCAAUGAGAAGGGACAUGAGGAUCACCCAUGUAUGAGCCUAAA [Zatelaveus] (puzzle: Brourd's mod of Exclusion 4) | 15.9 | 14.1 | 14.5 | – | – | –
AGUCAGGCGGUAGGAUAUCCAUAUCGAGUGACCCUUUCAUAACAUGAGGAUCACCCAUGUCGGUGGGAGAAGGGCCGUACGGCA [Mat - Exclusion NG 2 - Mod of JL - D68] (Eterna round: R96, puzzle: Exclusion NG 2) | – | – | – | 116 | 52.3 | 89.3
AGUCAGGCGGUAGGAUAUCCAUAUCGAGUGACCCUUUCAUAACAUGAGGAUCACCCAUGUCGGUGGGAGAAGGGCCGUACGGCG [JL ViennaUCT Atra mod 4] (Eterna round: R96, puzzle: Exclusion NG 2) | – | – | – | 203 | 84.2 | 103
AGUCCUGGAGUUAGGAUAUGGCGUAUCGCUGCGCUUCAGAAGGGACUUGAGGAUCACCCAAGUAGCCGUGAGGG [salish99_bmod_ex4_r4_008] (Eterna round: R97, puzzle: Brourd's mod of Exclusion 4) | – | – | – | 81.7 | – | 82.4
AGUCGAAAGACAAAAACAGACAUGAGGAUCACCCAUGUAAAGGGUGAACAAGCCACCCGCUCGUCUUAAAAAAAAAA [Mat - Sensor v2 - JL mod - D25] (Eterna round: R96, puzzle: Sensor v2, turn-off variant) | – | – | – | 136 | 69.2 | 114
AGUCGGAAGACAAAAGGAAACAUGAGGAUCACCCAUGUAAAGGGUGAAAACAAGCCACCCGCUCGUCUUAAAGAAAA [Mat - Sensor v2- JL mod - D44] (Eterna round: R96, puzzle: Sensor v2, turn-off variant) | – | – | – | 40.7 | 144 | 46.1
AGUCGGCGAGGAUAUACAUGAGGAUCACCCAUGUGUGAUCCUAGACCUGUAGGUCCAUGUAGAAGGCGCUGACA [Exclusion 3 - Was a mod at one point] (puzzle: Exclusion 3) | – | 18.8 | – | – | – | –
AGUCGGUCAGGAUAUGCAUACGUAGACAUGAGGAUCACCCAUGUGACGUGGGCCUGGUGUGUAGAAGGGACGAGCA [EX5 #82] (Eterna round: R97, puzzle: Exclusion 5) | – | – | – | 32.6 | – | 17.6
AGUCGUAAACAAGUUUCUGACAUGAGGAUCACCCAUGUGAGACUAAAAGUAUCAGAUUGCCUAAUAAGUAGCUCGUC [Eternabot (L2) Solution 29] (Eterna round: R97, puzzle: Sensor, turn-off variant 1) | – | – | – | 20.6 | – | 23.5
AGUCGUAGACAGGAUAUGCGGCUAAUAAAUAAAGCAGAAGGGUCUACUUGAGGAUCACCCAAGUGGGCGGUUUA [jl-ex6-4.20 ViennaUCT mod] (Eterna round: R97, puzzle: Exclusion 6) | – | – | – | 96.3 | – | 23.1
AGUCUGCUAGGAUAUACAUGAGGAUCACCCAUGUCUAUCAAAAGACUAUUAACCUGGUGUAGAAGGAGCUUGUA [Lasodiar] (puzzle: Exclusion 3) | – | 10.7 | – | – | – | –
AGUGCGUAUGUGAGGAUAUGCUGGUCCUUGGAUCAGCAGAAGGCACAUGAGGAUCACCCAUGUGGUGUCGUACC [salish99_Bmod_Ex4_003] (puzzle: Brourd's mod of Exclusion 4) | – | 180 | – | – | – | –
AGUGCGUAUGUGAGGAUAUGCUGGUCCUUGGAUCGGCAGAAGGCACAUGAGGAUCACCCAUGUGGUGUCGUACU [salish99_Bmod_ex4_084] (puzzle: Brourd's mod of Exclusion 4) | – | 280 | – | – | – | –
AGUUAGAAAGGAUAUACAUGAGGAUCACCCAUGUAGGGCUGUUAGAGACCCGGUCUCUGUAGAAGGUUCGAACU [EX3 C.16] (Eterna round: R97, puzzle: Exclusion 3) | – | – | – | 30.8 | – | 28.9
